Data: the DeepSol protein solubility set

Assay: soluble on expression in E. coli; label from the status in PepcDB or PDB records

Sequence | soluble on expression in E. coli
MTQEYQLRILPEIAANEQRLKEYISKEKGINLRNITATRILKRSIDARQRTIFVNLKVRAYINEMPKEDEFERTIYNNVEGKPQVIVVGAGPGGLFAALRLIELGLRPIIVERGKDVRERKKDLAQISREHTVDPESNYSFGEGGAGAYSDGKLYTRSKKRGNIDKILNVFCQHGASAAILADAHPHIGTDKLPRVIENMRNTIIECGGEVHFQTRMDALIIENNEIKGIETNTGKTFLGPVILATGHSARDVYRWLAANGVTIEAKGIAVGVRLEHPAMLIDQIQYHNKNGRGKYLPAAEYSFVTQAEGRGVYSFCMCPGGFIVPAASGPEQVVVNGMSPSNRGSRWSNSGMVVEIQPEDFISGELKMESGELAAQQNAQLLAINPLLSNSQLSTLKTQLTPLHFQEELERQCWLQGGRRQTAPAQRMLDFTRKKLSFDLPESSYSPGLISSPLHFWMPDFISKRLSLGFQQFGRTSHGFLTNEAVMIGVETRTSSPVRIVRDKETLQHVTVRGLFPCGEGAGYAGGIVSAGVDGERCAEAVANYINHLEHHHHHH | not soluble
NAADGIFFPALEQNMMGAVLINENDEVMFFNPAAEKLWGYKREEVIGNNIDMLIPRDLRPAHPEYIRHNREGGKARVEGMSRELQLEKKDGSKIWTRFALSKVSAEGKVYYLALVRDAS | soluble
RKLTMNSNYKREDFVNETEVRWCPGCGDYAILAALQRVLPELGLPPEQHVFVSGIGCAGRLPYYMNTYGFHTIHGRATAVATGLKAMREDLCVWVITGDGDALSIGGNHLLHILRRNVNVNILLFNNQVYGLTKGQFSPTSQKGQVTKTSPKGVTSEPINPIMIALASGASFVARAVDKDPVHLASVLKKAYEHKGCSFVEIYQDCNIFNHGAFDDFAVKNNRAENTIILEDGQPLVFGAQKEKALQLDDEQFVQISIDEKTLYKHDEKNLISAMRLARLTFPDYPVPLGVYYQKDRERFTLSQEVKKRPEDLP | not soluble
MNVANNNCGQMLSDSSESSEPPRAQAGAVFGKKDKGKKADTKKKNTATEGSKRVKKEKKKDDGEAAKGDPTNKTNMTPAPPQTHPIVEQWVLRALDVGVDKLREEFRGLAKYTRPDMTQVMFNANQSPDIAITKNRYQDVPCQDQSAVKLDQPSPCNYIHANYVGCPMIPEKRFICAQGPLDQTIDEFWWMVIQNKVEQIVMLCKTVEMGKLKCAQYWPAAQGEKLTLKSGCVVENVSGSKPMERDPEIQITMLNLTYSGGQTMSVRHLQWTEWPDRGVPPCKLTSLELLSAIRGSKVPIVVHCSAGIGRTGTIVAIEYILEKIAENKPCPPMPELVKALRDQRAFSIQNDVQYLFIHRVMLNYFLEKYKEKYAALLTAENVAKYDKFIKDYNAAVGQ | not soluble
GSGAVTAGAAPRILKHQVVRAELDRMLDGMRIGDPFPAEREIAEQFEVARETVRQALRELLIDGRVERRGRTTVVARPKIRQPLGMGSYTEAAKAQGLSAGRILVAWSDLTADEVLAGVLGVDVGAPVLQLERVLTTDGVRVGLETTKLPAQRYPGLRETFDHEASLYAEIRSRGIAFTRTVDTIDTALPDAREAALLGADARTPMFLLNRVSYDQDDVAIEQRRSLYRGDRMTFTAVMHAKNSAIVS | soluble
MTPTLETKYVFTITARIGDVTSAGEIGTGVRRIIPILGGEVKGEGISGQVLPFGADFQIIRPNELIELEAKYAFETDDGAVVYVENVGIRFGPVELLRKLKRGEPVDPKVIYFRTRPRFETGHPNYQWLMQYLFVGSAARHADRVVIDVHQVL | soluble
MGSDKIHHHHHHMPAILDLFNQKTVLDYVQNRQYPQLLGDTLFPSVKIDQLDFEYLRGGSKTPIIASVSAFDTEAEIGSREASVQAAELGYIKRKMQLKEKDLIALRNPRTPAEQNYLTSLVYNDLDVLVQGVYARVEKMRMEALATGTISIDENNMNFGVTYNVPAEHQVTAATSWDADGADPIKDLQDWFALLDYAPTRILTSSKVQTALIRSKAFADYFKTAGLLPSVGSLNAVLQSFGLPTIVTYDAKYRKQGANGIYTVERYFPEDTLVAFGDDQLGQTVYGPTPEESRLIATPGVQQGTVGNVFTTVYETTQDPIATWEKAAATALPSFPEAENVLQAKVLIPKP | not soluble
MAHHHHHHMKQNGGRETPDGVRYPHIALDVLGQCHSSACVELGNTRVICAVHHPQQLVDEYRGSRGRVACTVRRSASAGSHAAGSAQPSVVTPEKDMSLALEGVAEEVVILEKIPQLLVEVVVEILAEDGGVWDAVATSMSAALVSGGFEMYDLFSACGSALLSDGAVVLDPDAAEESNAQASALVCLMLNSGDICYARHQGSCEPGTVLELVSSAMKGCLSRKSAITTQLINHPIL | not soluble
MAKSSSLNVRVVEGRALPAKDVSGSSDPYCLVKVDDEVVARTATVWRSLGPFWGEEYTVHLPLDFHQLAFYVLDEDTVGHDDIIGKISLSREAITADPRGIDSWINLSRVDPDAEVQGEICLSVQMLEDGQGRCLRCHVLQARDLAPRDISGTSDPFARVFWGSQSLETSTIKKTRFPHWDEVLELREMPGAPSPLRVELWDWDMVGKNDFLGMVEFSPKTLQQKPPKGWFRLLPFPRAEEDSGGNLGALRVKVRLIEDRVLPSQCYQPLMELLMESVQGPAEEDTASPLALLEELTLGDCRQDLATKLVKLFLGRGLAGHFLDYLTRREVARTMDPNTLFRSNSLASKSMEQFMKLVGMPYLHEVLKPVISRVFEEKKYMELDPCKMDLGRTRRISFKGALSEEQMRETSLGLLTGYLGPIVDAIVGSVGRCPPAMRLAFKQLHRRVEERFPQAEHQQDVKYLAISGFLFLRFFAPAILTPKLFDLRDQHADPQTSRSLLLLAKAVQSIGNLGQQLGQGKELWMAPLHPFLLQCVSRVRDFLDRLVDVDGDEEAGVPARALFPPSAIVREGYLLKRKEEPAGLATRFAFKKRYVWLSGETLSFSKSPEWQMCHSIPVSHIRAVERVDEGAFQLPHVMQVVTQDGTGALHTTYLQCKNVNELNQWLSALRKASAPNPNKLAACHPGAFRSARWTCCLQAERSAAGCSRTHSAVTLGDWSDPLDPDAEAQTVYRQLLLGRDQLRLKLLEDSNMDTTLEADTGACPEVLARQRAATARLLEVLADLDRAHEEFQQQERGKAALGPLGP | soluble
MLDMELESFLSMEKQGDISDAFLSAVKAEMQQMVLYAAGLAVRNIEETNRLRQKAKELYFYYLERYSPLAEMYKGSEMSLHNAGTATLRGHKNLAGGKRIDIGLWDGSKEFFHEYCYLPDDVQIRLFISKIQLLHFVVGAITTPQYVEKVALLGKVVGSSRYLELLRSFIDLNDPSGKNYSRGLFFYDHKFDKLEEVGKEVGENLPEVIKRFFPDKWVLVDVWATWCSPCKKEFGYNKQLHAFLEEKGIAMLYCSVDEPENSDNWRNNLSAFGLTGYHYYITSKAEKELLKIPDFRMLIPRYLLFDNKGKLVHANLPRPSSEKALYEEIEKLMQGN | not soluble
MASEVPQVVSLDPTSIPIEYNTPIHDIKVQVYDIKGGCNVEEGLTIFLVNNPGKENGPVKISSKVNDKQVSEFLKDENMEKFNVKLGTSKHFYMFNDNKNSVAVGYVGCGSVADLSEADMKRVVLSLVTMLHDNKLSKLTVVFEINVDKNLFRFFLETLFYEYMTDERFKSTDKNVNMEYIKHLGVYINNADTYKEEVEKARVYYFGTYYASQLIAAPSNYCNPVSLSNAAVELAQKLNLEYKILGVKELEELKMGAYLSVGKGSMYPNKFIHLTYKSKGDVKKKIALVGKGITFDSGGYNLKAAPGSMIDLMKFDMSGCAAVLGCAYCVGTLKPENVEIHFLSAVCENMVSKNSYRPGDIITASNGKTIEVGNTDAEGRLTLADALVYAEKLGVDYIVDIATLTGAMLYSLGTSYAGVFGNNEELINKILQSSKTSNEPVWWLPIINEYRATLNSKYADINQISSSVKASSIVASLFLKEFVQNTAWAHIDIAGVSWNFKARKPKGFGVRLLTEFVLNDALHHHHHH | soluble
MGSDKIHHHHHHMTNLNYCRPLSLTTNRCLMNKELETLILSAVDLPTIPLVATKVIEMIEQEDVTIEKIAQTVSADPAVAARILKLSNSAYYGCQRQINTLSGAIMLLGFRTLKSLVVAASLKQICKRFGLTEKMLWEHAVGAAIAARIISANGKFINEETAFLAGLFHDIGKTIMNDLDPSKFQQVMMRCYNEGLPFEEVERSIYSFSHAEVGALVIRKWNFPEALSTAVMNHHDFPNPTLTDQYDLFLTATTCLADKFCKKLGIGERHPDEELDLAKTQEAHLLGYTPETILRDVDQFAQTFEENKSFFIND | not soluble
MGKKRKITDEKDAQHVPAEKREKVENWLKKSTEKPTSSQSDAEKKKKRPWRNKVRKLAAKKAAADKKSENPEEPPLILEPKSSSDENTKKKRKRGPKKKKFKPEVAGKAAETENDDVAAAPEEADPIAEAKKRLDAGRFRFLNEKLYTCTGSEAFDFFKEDPTAFDLYHKGFADQVKKWPNHPLREIIRWLQSKPDQQSVFDLGCGEAKIAEAVGEKHKIRSFDLVAVNDRVESCDMSKLPAEDSSADIVIYCLSLMGTNLYDFIREARRVLKIGGILKIAEVTSRFVSIKQFCEAITKMGFEQSHRRELTDYFMMMEFKKVEKVEQKRPYGLKLKPCLYKKR | soluble
MTETTYENLTRRIDRISAEMREISEENGLRILSLLESQTKSIKDELSRLLWIELPELNESHKIEAVSKSTTGMFFAPGIFEMDAMRKAFFKRQAKHFFENEAEQQAYIEHAEKEYLEATVTLKDILFNSKNGTQKANKSCLIEKFEEAMQ | not soluble
MYVCKHCGSAMNKDVEIDIVGIKGNTLYVGECKWSNKKIDVRVLDRLRSKVPYLLKDLQVDNLSVVYYLFSRSGFDGLKETEEVKLVELKDLFR | not soluble
LVSGVICAAIGAVALLGTQAVLKSTNSTEFCVSCHSMTHPQAEWEGSVHFSNRKGIRAECADCHVPQDSWHYVKAKVAAVKDVWHTFVTNKIPDQEAYEKHRLEMAQHVWQDMKETDSATCRSCHSFDAMVLAEQREAAQKMHKIAQETNQTCIDCHKGIAHFMPEMPADNSAALGELAKHGGKFNSADKVLYSLAMTSAKLAQGSEIRLLPFAELHNWQEEGDKIVAVVKGWQQVGAEGVIYSGLGQRIMVGLVDDAAKDKLTVHQVVNDKVTNSDWKEVSTSVSLPKAALTADIKSLNDFGSNLNQTHCSGCHAPISANHYTA | not soluble
MGSDKIHHHHHHVGAGGRDVVWTPRSLYLTDFIHANLLEKLKMQTLIIYSTIDGQTLAICQKIKLFAEQAGENVSLVTLEQAEALSLADFDKVLIGASIRYGKYRPELYQFVNRHHAVLDTKINGFFSVNVVARKPLKNTPETNPYMQKFLKLSLWQPQHLAVFAGKIDYPKYSFFDRTMIRFIMWMTKGPTDINGTFEFTDWAKVDAFGTDFSHQ | not soluble
MGSDKIHHHHHHMIILTRKDLDELLKAEIAVSSVKEAFKLHYQKKVDQPQRLVMSVKGNWWGLMPSSTDYSFVTKIVNVIPENKERGLPLVQGVVILMSPDTGEILAIIDGTTLTAIRTAAASILSTELAINGRNIGILGIIGAGTEAYYHAKLALEYFKVQKLYISARKSHFELAKRVGGEATDLETLLKNSDTIFATTSSNFPVVLGKYLKDVFHLSSIGAHTPDSRELDDDTIIKVKSYIVDSLEAVSKESGDYIIPKQRGLLENKMIKELGEIIEKGIKIERPSLFKTVGIAVEDNITAHIAYQEALRRGIGFNVSI | not soluble
MNEIKLKYDTQVSVVHYESLDSRSFKSFSMPKWSKLVNKLSVPIEANYKYARGVAVYGDIKDNTNDHGEIIKKHRNDKNVIYRNVIVLDYDEINDVKQLHDAISSVLSSVAWYWHTSFSHTTEQARIRLYIPLNERISADDYRKYTKVLANKIGHKVDEGSYQPSRCFALPVIQKGHIFIKRVNDCPIMDVDMLEQWSKEYKQSNGSPNIKGYTRRDSAYWRDIAFGVSEGERNSTLASITGYLLRRYVDPNLVYGLVSAWASVCKPPINQSEVNNTFKSILKKDSKNS | not soluble
MVLPKDVKWDLIRQFQRHEQDTGSPEVQIAILTERINRLTEHMKKHKKDIHSRRGLIAMVNKRRKLLEYLRETDYAKYLEVVQKLNLKVK | soluble
